Measurements from IntAct's records for PubMed 31515488.

B1: U3 small nucleolar RNA-associated protein 14 homolog C (Homo sapiens), Q5TAP6 (parent)
chain: MNVNQVAENLALSHQEELVDLPKNYPLSENEDEGDSDGERKHQKLLEAIISLDGKNRRKLAERSEASLKVSEFSVSSEGSGEKLGLADLLEPVKTSSSLATVKKQLNRVKSKKVVELPLNKEKIEQIHREVAFSKTSQVLSKWDPIILKNQQAEQLVFPLGKEQPAIAPIEHALSGWKARTPLEQEIFNLLHKNKQPVTDPLLTPMEKASLQAMSLEEAKMHRAELQRARALQSYYEAKARKEKKIKSKKYHKVVKKGKAKKALKEFEQLQKVNPTVALEEMEKIENARMMERMSLKHQNSGKWAKSKAIMAKYDLEARQAMQEQLAKNKELTQKLQVASESEEEEGGTEVEELLVPHVANEVQMNVDGPNPWMFRSCTSDTKEAATQEDPEQVPELAAHEVSASEAEERPVAEEEILLREFEERQSLRKRSELNQDAEPASSQETKDSSSQEVLSELRALSQKLKEKHQSRKQKASSEGTVPQVQREEPAPEEAEPLLLQRSERVQTLEELEELGKEDCFQNKELPRPVLEGQQSERTPNNRPDAPKEKKEKEQLINLQNFLTTQSPSVRSLAVPTIIEELEDEEERDQRQMIKEAFAGDDVIRDFLKEKREAVEASKPKDVDLTLPGWGEWGGVGLKPSAKKRRQFLIKAPEGPPRKDKNLPNVIISEKRNIHAAAHQVQVLPYPFTHHRQFERTIQTPIGSTWNTQRAFQKLTTPKVVTKPGHIIKPIKAEDVGYQSSSRSDLPVIQRNPKRITTRHNKEEKL
B2: Microtubule-associated tumor suppressor candidate 2 (Homo sapiens), Q5JR59-3 (parent)
chain: MGHCCCKPYNCLQCLDKTNESALVKEKELSIELANIRDEVAFHTAKCEKLQKEKEELERRFEDEVKRLGWQQQAELQELEERLQLQFEAEMARLQEEHGDQLLSIRCQHQEQVEDLTASHDAALLEMENNHTVAITILQDDHDHKVQELMSTHELEKKELEENFEKLRLSLQDQVDTLTFQSQSLRDRARRFEEALRKNTEEQLEIALAPYQHLEEDMKSLKQVLEMKNQQIHEQEKKILELEKLAEKNIILEEKIQVLQQQNEDLKARIDQNTVVTRQLSEENANLQEYVEKETQEKKRLSRTNEELLWKLQTGDPTSPIKLSPTSPVYRGSSSGPSSPARVSTTPR
partner: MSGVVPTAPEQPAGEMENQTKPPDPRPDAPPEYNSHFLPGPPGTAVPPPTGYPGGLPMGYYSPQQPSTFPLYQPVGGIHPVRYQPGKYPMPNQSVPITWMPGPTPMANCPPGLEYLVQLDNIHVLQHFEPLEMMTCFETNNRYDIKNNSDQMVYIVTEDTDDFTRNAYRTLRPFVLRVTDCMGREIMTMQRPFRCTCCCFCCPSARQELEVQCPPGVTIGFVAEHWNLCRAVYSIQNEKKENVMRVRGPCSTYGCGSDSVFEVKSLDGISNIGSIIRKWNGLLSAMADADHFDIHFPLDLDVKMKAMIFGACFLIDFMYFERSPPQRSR
B3: Ribonuclease P protein subunit p25-like protein (Homo sapiens), Q8N5L8 (parent)
chain: MEHYRKAGSVELPAPSPMPQLPPDTLEMRVRDGSKIRNLLGLALGRLEGGSARHVVFSGSGRAAGKAVSCAEIVKRRVPGLHQLTKLRFLQTEDSWVPASPDTGLDPLTVRRHVPAVWVLLSRDPLDPNECGYQPPGAPPGLGSMPSSSCGPRSRRRARDTRS
partner: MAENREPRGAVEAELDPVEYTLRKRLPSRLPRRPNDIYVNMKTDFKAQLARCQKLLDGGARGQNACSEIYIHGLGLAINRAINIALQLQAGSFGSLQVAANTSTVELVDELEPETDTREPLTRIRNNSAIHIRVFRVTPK
B4: Outer dense fiber protein 1 (Homo sapiens), Q14990 (parent)
chain: MAALSCLLDSVRRDIKKVDRELRQLRCIDEFSTRCLCDLYMHPYCCCDLHPYPYCLCYSKRSRSCGLCDLYPCCLCDYKLYCLRPSLRSLERKAIRAIEDEKRELAKLRRTTNRILASSCCSSNILGSVNVCGFEPDQVKVRVKDGKVCVSAERENRYDCLGSKKYSYMNICKEFSLPPCVDEKDVTYSYGLGSCVKIESPCYPCTSPCSPCSPCSPCNPCSPCNPCSPYDPCNPCYPCGSRFSCRKMIL

Variants of: B1
Conditions: with myome_human PDE4DIP

| Variant | effect of a mutation on the interaction |
| --- | --- |
| K247E | with no effect |
| R672H | with no effect |
| V109D | with no effect |

Variants of: B2
Conditions: with pls4_human PLSCR4, Q9NRQ2

| Variant | effect of a mutation on the interaction |
| --- | --- |
| MGHCCCKPYNCLQCLDKTNESALVKEKELSIELANIRDEVAFHTAKCEKLQKEKEELERRFEDEVKRLGWQQQAELQELEERLQLQFEVEMARLQEEHGDQLLSIRCQHQEQVEDLTASHDAALLEMENNHTVAITILQDDHDHKVQELMSTHELEKKELEENFEKLRLSLQDQVDTLTFQSQSLRDRARRFEEALRKNTEEQLEIALAPYQHLEEDMKSLKQVLEMKNQQIHEQEKKILELEKLAEKNIILEEKIQVLQQQNEDLKARIDQNTVVTRQLSEENANLQEYVEKETQEKKRLSRTNEELLWKLQTGDPTSPIKLSPTSPVYRGSSSGPSSPARVSTTPR [A89V] | with no effect |

Variants of: B3
Conditions: with pop7_human POP7, O75817

| Variant | effect of a mutation on the interaction |
| --- | --- |
| MEHYRKAGSVELPAPSPMPQLPPDTLEMRVRDGSKIRNLLGLALGRLEGGSARHVVFSGSGRAAGKAVSCAEIVKRRVPGLHQLTKLRFLQTEDSWVPASPDTGLDPLTVRRHVPAVWVLLSRDPLNPNECGYQPPGAPPGLGSMPSSSCGPRSRRRARDTRS | with no effect |

Variants of: B4
Conditions: with mtus2_human MTUS2, Q5JR59

| Variant | effect of a mutation on the interaction |
| --- | --- |
| MAALSCLLDSVRRDIKNVDRELRQLRCIDEFSTRCLCDLYMHPYCCCDLHPYPYCLCYSKRSRSCGLCDLYPCCLCDYKLYCLRPSLRSLERKAIRAIEDEKRELAKLRRTTNRILASSCCSSNILGSVNVCGFEPDQVKVRVKDGKVCVSAERENRYDCLGSKKYSYMNICKEFSLPPCVDEKDVTYSYGLGSCVKIESPCYPCTSPCSPCSPCSPCNPCSPCNPCSPYDPCNPCYPCGSRFSCRKMIL [K17N] | with no effect |
